Target: CD36 on human monocytes / monocyte membrane extract (Homo sapiens, UniProt P16671 1-472)
Assay: pull-down with mass spectrometry

CD36 on human monocytes / monocyte membrane extract, sequence (P16671 whole entry): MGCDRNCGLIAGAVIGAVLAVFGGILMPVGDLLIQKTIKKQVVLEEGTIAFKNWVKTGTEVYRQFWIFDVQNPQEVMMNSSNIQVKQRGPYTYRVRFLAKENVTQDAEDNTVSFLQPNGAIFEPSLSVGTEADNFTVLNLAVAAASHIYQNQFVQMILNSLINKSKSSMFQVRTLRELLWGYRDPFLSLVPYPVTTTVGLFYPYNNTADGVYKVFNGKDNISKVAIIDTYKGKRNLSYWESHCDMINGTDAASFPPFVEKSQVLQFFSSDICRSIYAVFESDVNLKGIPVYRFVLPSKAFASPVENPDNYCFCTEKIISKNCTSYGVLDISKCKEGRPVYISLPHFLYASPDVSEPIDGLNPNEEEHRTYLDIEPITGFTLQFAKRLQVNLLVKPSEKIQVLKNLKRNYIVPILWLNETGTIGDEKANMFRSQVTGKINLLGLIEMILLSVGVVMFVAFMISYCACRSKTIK

B1: CD36Apt (Mono.A2) (ssDNA)
DNA: ATCCAGAGTGACGCAGCAGAAGAGTAGATGAAACGTTTTTTCGCCCGATAAAAGGGACGTGCGTCAGACATGGACACGGTGGCTTAGT
B1: binds.
